Data: US20240124597A1 (Bristol-Myers Squibb, published 2024)
Residue numbers refer to the chain shown, from its start. One block for each binder: values may come before it.

Legend:
[1] = molecular target: T1, human-CD40-monomer protein (human, UniProt P25942 21-193, limits assumed); assay: SPR, Ab captured on protein A, hCD40 monomer 500 and 50 nM, 1:1 fit; supernatant
T1 construct: Soluble monomer generated in house, used as SPR analyte; also called hCD40; hCD40-monomer
Protocol: (§1) Titer analysis was performed using Biolayer Interferometry (BLI) on an Octet RED instrument (Fortebio) by capturing antibodies from supernatant using protein A sensor tips and measuring capture response with respect to a standard curve obtained using a control antibody sample. SPR data were obtained by capturing antibodies on a protein A surface and testing the binding of 500 nM and 50 nM injections of human-CD40 analyte, using a BIAcore™ T200 instrument (GE Healthcare). The kinetic data for the two concentrations of hCD40-monomer were fit to a 1:1 Langmuir model, to yield estimates of the kinetic and affinity values for these interactions, and for comparison of the different molecules.

[2] = molecular target: human CD40 on cells (tonsillar B cells, immature dendritic cells, Ramos-Blue cells) (human, UniProt P25942 21-277); assay: cell-based or functional assay
[3] = molecular target: T1, human-CD40-monomer protein; assay: SPR, purified Ab captured on protein A, hCD40 monomer 500-3.9 nM, 37 C, 1:1 Langmuir fit
Protocol: (§2) Based on the sequences, titer, and SPR binding data, antibodies were selected for larger scale expression, purification, and further characterization. SPR analysis using purified antibodies was performed by capturing antibodies on a protein A surface, with binding of a 500-3.9 nM (2:1) dilution series of human-CD40 monomer, at either 25° C. or 37° C. in PBS-T pH 7.1 buffer; the titration data was fit to a 1:1 Langmuir model.
(§3) SPR data are fit to a 1:1 Langmuir model using BIAcore™ T200 evaluation software to obtain values for the association rate constant (ka), dissociation rate constant (kd) and dissociation constant (KD).

[4] = molecular target: T1, human-CD40-monomer protein; assay: SPR, purified Ab captured on protein A, hCD40 monomer 500-3.9 nM, 25 C, 1:1 Langmuir fit
Protocol: as §2, §3

[5] = molecular target: T1, human-CD40-monomer protein; assay: SPR, Ab captured on protein A, 1 uM hCD40 monomer, single concentration, apparent value
Protocol: The CD40 kinetic and affinity data for human-CD40 monomer binding to mouse anti-human CD40 antibodies captured on a protein A sensor chip surface were assessed by SPR. The data shown are for a single concentration of CD40 analyte (1 μM) and are therefore reported as apparent (app) values.

[6] = molecular target: T1, human-CD40-monomer protein; assay: SPR, Ab captured on protein A, hCD40 monomer 500 and 50 nM, 1:1 fit; purified
Protocol: as §1

T1 sequence (P25942 21-193 limits assumed): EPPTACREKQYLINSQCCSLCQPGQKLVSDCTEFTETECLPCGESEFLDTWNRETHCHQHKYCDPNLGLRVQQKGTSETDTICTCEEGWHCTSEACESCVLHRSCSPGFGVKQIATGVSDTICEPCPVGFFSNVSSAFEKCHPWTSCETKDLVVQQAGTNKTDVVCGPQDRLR
Chain of human CD40 on cells (tonsillar B cells, immature dendritic cells, Ramos-Blue cells) (P25942 21-277 limits assumed): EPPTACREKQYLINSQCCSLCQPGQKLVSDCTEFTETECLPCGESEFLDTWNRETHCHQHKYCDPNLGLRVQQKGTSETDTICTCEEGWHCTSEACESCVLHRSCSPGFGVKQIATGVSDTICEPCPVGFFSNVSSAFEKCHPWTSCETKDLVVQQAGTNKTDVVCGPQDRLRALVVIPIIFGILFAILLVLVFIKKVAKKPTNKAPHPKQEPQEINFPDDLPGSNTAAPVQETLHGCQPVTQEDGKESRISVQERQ

Kd [1]: 3.5 nM
koff [1]: 0.00083 s⁻¹
kon [1]: 240000 M⁻¹ s⁻¹
Inhibition of B cell proliferation induced by soluble CD40L trimer, Average (IC50 ng/ml) [2]: 12.1 ng/mL
Kd [3]: 5.5 nM
koff [3]: 0.0034 s⁻¹
kon [3]: 630000 M⁻¹ s⁻¹
Kd [4]: 2.3 nM
koff [4]: 0.00073 s⁻¹
kon [4]: 310000 M⁻¹ s⁻¹
B1: Y12XX-hz42-P238K (antibody, human IgG1, kappa, V domains shown)
VH: QVQLVQSGAEVKKPGSSVKVSCKASGYAFTSYWMHWVRQAPGQGLEWMGQINPTTGRSQYNEKFKTRVTITADKSTSTAYMELSSLRSEDTAVYYCARWGLQPFAYWGQGTLVTVSS
VL: EIVMTQSPATLSVSPGERATLSCKASQDVSTAVAWYQQKPGQAPRLLIYSASYRYTGIPARFSGSGSGTEFTLTISSLQSEDFAVYYCQQHYSTPWTFGGGTKVEIKR
notes: also called Vh-hz14;Vk-hz3

Kd [1]: 4.7 nM
koff [1]: 0.0011 s⁻¹
kon [1]: 240000 M⁻¹ s⁻¹
Inhibition of B cell proliferation induced by soluble CD40L trimer, Average (IC50 ng/ml) [2]: 6 ng/mL
Kd [3]: 10.9 nM
koff [3]: 0.0057 s⁻¹
kon [3]: 520000 M⁻¹ s⁻¹
Kd [4]: 4.4 nM
koff [4]: 0.0013 s⁻¹
kon [4]: 290000 M⁻¹ s⁻¹
B2: Y12XX-hz40-P238K (antibody, human IgG1, kappa, V domains shown)
VH: B1 VH with T54S, T55Q
VL: B1 VL
notes: also called Vh-hz12;Vk-hz3

Kd [5]: 7.9 nM
koff [5]: 0.00013 s⁻¹
kon [5]: 17000 M⁻¹ s⁻¹
B3: ADX_Y1258.ZZ0-1 (antibody, V domains shown)
VH: QVQLQQSGAELAKPGSSVKMSCKASGYAFTSYWMHWIKQRPGQGLEWIGFINPTTGYSEYNQKFKDKATLTADKSSSTAYMQLNSLTSEDSAVYFCARWGLPPFAYWGQGTLVTVSA
VL: DIVMTQSHKFMSTSVGDRVSITCKASQDVSTAVAWYQQKPGQSPKLLIYSASYRYTGVPDRFTGSGSGTDFTFTISSVQAEDLAVYYCQQHYSTPWTFGGGTKLEIK
notes: Mouse anti-human-CD40 antibody

Kd [6]: 0.01 nM
koff [6]: 5.9e-07 s⁻¹
kon [6]: 58000 M⁻¹ s⁻¹
B4: Y1258-hIgG1f (antibody)
heavy: not shown
VL: B3 VL
notes: Purified chimeric antibody, mouse variable regions with human wild-type IgG1f; also called purified chimeric Y1258; Chim-P

Kd [6]: 3.2 nM
koff [6]: 0.0013 s⁻¹
kon [6]: 400000 M⁻¹ s⁻¹
B5: Y1268-hIgG1f (antibody, V domains shown)
VH: QVQLQQPGAELVKPGASVRLSCKASGYAFTSYWMHWVKQRPGQGLEWIGQINPSNGRSQYNEKFKTMATLTVDKSSSTAYIQLSSLTSEDSAVYYCARWGLQPFAYWGQGTLVTVSA
VL: B3 VL
notes: Purified chimeric antibody with human wild-type IgG1f; also called purified chimeric Y1268; Chim-P

Kd [5]: 2.2 nM
koff [5]: 0.00012 s⁻¹
kon [5]: 55000 M⁻¹ s⁻¹
B6: ADX_Y1238.ZZ0-1 (antibody, V domains shown)
VH: QVQLQQSGAELVRPGTSVKVSCKASGYAFTNYLIEWVKQRPGQGLEWIGVINPGSGGTNYNEKFKGKATLTADKSSSTAYMQLSSLTSDDSAVYFCARSQLGRRFDYWGQGTTLTVSS
VL: B3 VL with S30R, A32G, Y55N, G66R, T94P, W96Y
notes: as for B3

Kd [5]: 17 nM
koff [5]: 0.00023 s⁻¹
kon [5]: 14000 M⁻¹ s⁻¹
B7: ADX_Y1264.ZZ0-1 (antibody, V domains shown)
VH: EVQLQQSGTVLARPGASVKMSCRASGYSFSSYWMHWVKQRPGQGLEWIGSINPGNSDAFYNQQFKGKAKLTAVTSASTAYMELSSLTNEDSAVYYCTRWGLPPFAYWGQGTLVTVSA
VL: B3 VL with Q89H
notes: as for B3

Kd [5]: 1.1 nM
koff [5]: 0.00041 s⁻¹
kon [5]: 370000 M⁻¹ s⁻¹
B8: ADX_Y1267.ZZ0-1 (antibody, V domains shown)
VH: B5 VH with K23E, A28S, S58T, T66S, S84N
VL: B3 VL with Q89L, S93T
notes: as for B3

Kd [5]: 1.4 nM
koff [5]: 0.00046 s⁻¹
kon [5]: 320000 M⁻¹ s⁻¹
B9: ADX_Y1268.ZZ0-1 (antibody, V domains shown)
VH: B5 VH
VL: B3 VL
notes: as for B3

Kd [5]: 4 nM
koff [5]: 0.00021 s⁻¹
kon [5]: 52000 M⁻¹ s⁻¹
B10: ADX_Y1260.ZZ0-1 (antibody, V domains shown)
VH: QVQLQQSGAELTKPGASVKMSCKASGYSFTSYWMHWVKQRPGQGLEWIGSINPSTGYTEDNQKFKDKATLTADKSSTTAYMQLSSLTSEDSAVYYCARWGLPPFAYWGQGTLVTVSA
VL: B3 VL
notes: as for B3

Kd [6]: 12 nM
koff [6]: 0.0055 s⁻¹
kon [6]: 480000 M⁻¹ s⁻¹
B11: Y1262-hIgG1f (antibody)
heavy: not shown
VL: B3 VL with S67Y
notes: Purified chimeric antibody with human wild-type IgG1f; also called purified chimeric Y1262; Y1632-hIgG1f

Kd [5]: 6.6 nM
koff [5]: 0.0025 s⁻¹
kon [5]: 370000 M⁻¹ s⁻¹
B12: ADX_Y1262.ZZ0-1 (antibody, V domains shown)
VH: B3 VH with I37V, F50Y, E59A, F95Y, G100D, L101P, P102R
VL: B3 VL with S67Y
notes: as for B3
